Assay results taken from US20200308292A1 (ARMAGEN TECHNOLOGIES, published 2020).

Columns and labels:
[1] = target: T1, human insulin receptor extracellular domain (HIR ECD) (human, UniProt P06213 28-956, limits assumed); assay: ELISA, HIR ECD plated, biotinylated anti-human IgG detection
T1 construct: extracellular domain
Protocol: (§1) The affinity of the fusion protein for the HIR extracellular domain (ECD) was determined with an ELISA. CHO cells permanently transfected with the HIR ECD were grown in serum free media (SFM), and the HIR ECD was purified with a wheat germ agglutinin affinity column, as previously described in Coloma et al. (2000) Pharm Res, 17:266-274. The HIR ECD was plated on Nunc-Maxisorb 96 well dishes and the binding of the HIR Ab, or the HIR Ab-SGSH fusion protein, to the HIR ECD was detected with a biotinylated goat anti-human IgG (H+L) secondary antibody, followed by avidin and biotinylated peroxidase (Vector Labs, Burlingame, Calif.). […] The MW of the HIR Ab is 150 kDa, and the MW of the HIR Ab-SGSH fusion protein is 325 kDa.

[2] = target: T1, human insulin receptor extracellular …; assay: ELISA, HIR ECD plated; after normalization for MW (150 kDa)
Protocol: as §1

[3] = target: T1, human insulin receptor extracellular …; assay: ELISA, HIR ECD plated; after normalization for MW (325 kDa)
Protocol: as §1

B1: chimeric HIRMAb (monoclonal antibody to the human insulin receptor) (antibody, human IgG1, kappa)
heavy: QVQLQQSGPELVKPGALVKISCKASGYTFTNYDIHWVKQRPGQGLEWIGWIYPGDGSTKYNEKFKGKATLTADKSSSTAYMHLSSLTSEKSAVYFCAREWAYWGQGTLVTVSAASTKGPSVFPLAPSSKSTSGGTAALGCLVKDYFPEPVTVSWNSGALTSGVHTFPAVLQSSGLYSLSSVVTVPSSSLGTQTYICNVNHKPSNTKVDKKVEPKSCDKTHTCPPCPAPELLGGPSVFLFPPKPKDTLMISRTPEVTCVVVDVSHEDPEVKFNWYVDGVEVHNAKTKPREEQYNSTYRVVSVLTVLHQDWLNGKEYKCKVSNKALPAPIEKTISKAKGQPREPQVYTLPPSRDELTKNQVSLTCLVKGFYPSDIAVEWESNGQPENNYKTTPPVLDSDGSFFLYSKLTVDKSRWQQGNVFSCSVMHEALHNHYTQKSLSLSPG
light: DIQMTQSPSSLSASLGERVSLTCRASQDIGGNLYWLQQGPDGTIKRLIYATSSLDSGVPKRFSGSRSGSDYSLTISSLESEDFVDYYCLQYSSSPWTFGGGTKMEIKRTVAAPSVFIFPPSDEQLKSGTASVVCLLNNFYPREAKVQWKVDNALQSGNSQESVTEQDSKDSTYSLSSTLTLSKADYEKHKVYACEVTHQGLSSPVTKSFNRGEC
notes: Its tie to the tested chimeric HIRMAb is indirect; MW 150 kDa; also called HIR Ab; chimeric HIR Ab
[1]
  EC50: 0.029 µg/mL
[2]
  EC50: 0.19 nM

B2: HIRMAb-SGSH fusion protein (antibody, human IgG1, kappa)
heavy: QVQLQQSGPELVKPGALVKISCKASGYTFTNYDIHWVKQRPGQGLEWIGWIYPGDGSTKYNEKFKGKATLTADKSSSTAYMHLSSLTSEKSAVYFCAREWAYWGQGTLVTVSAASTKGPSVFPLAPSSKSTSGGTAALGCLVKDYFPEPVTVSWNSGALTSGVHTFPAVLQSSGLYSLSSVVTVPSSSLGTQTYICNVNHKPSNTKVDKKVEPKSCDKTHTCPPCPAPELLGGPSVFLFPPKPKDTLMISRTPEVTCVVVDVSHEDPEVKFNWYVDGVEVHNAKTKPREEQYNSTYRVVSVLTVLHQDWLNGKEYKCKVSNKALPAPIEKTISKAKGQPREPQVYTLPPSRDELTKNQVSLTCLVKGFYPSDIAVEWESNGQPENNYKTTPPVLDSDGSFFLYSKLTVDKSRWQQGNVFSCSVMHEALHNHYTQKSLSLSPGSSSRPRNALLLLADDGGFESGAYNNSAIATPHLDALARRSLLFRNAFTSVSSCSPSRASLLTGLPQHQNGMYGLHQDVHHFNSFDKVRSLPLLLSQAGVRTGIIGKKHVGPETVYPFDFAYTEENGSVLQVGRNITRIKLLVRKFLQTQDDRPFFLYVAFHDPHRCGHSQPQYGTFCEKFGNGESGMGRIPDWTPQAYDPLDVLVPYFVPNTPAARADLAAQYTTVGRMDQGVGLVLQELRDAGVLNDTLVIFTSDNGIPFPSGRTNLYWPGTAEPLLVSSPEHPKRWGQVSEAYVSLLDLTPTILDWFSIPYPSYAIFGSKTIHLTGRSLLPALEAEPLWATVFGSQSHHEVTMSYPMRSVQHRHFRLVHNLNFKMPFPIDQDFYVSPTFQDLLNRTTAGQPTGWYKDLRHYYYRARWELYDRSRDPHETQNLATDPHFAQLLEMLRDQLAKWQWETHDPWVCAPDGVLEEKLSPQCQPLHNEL
light: DIQMTQSPSSLSASLGERVSLTCRASQDIGGNLYWLQQGPDGTIKRLIYATSSLDSGVPKRFSGSRSGSDYSLTISSLESEDFVDYYCLQYSSSPWTFGGGTKMEIKRTVAAPSVFIFPPSDEQLKSGTASVVCLLNNFYPREAKVQWKVDNALQSGNSQESVTEQDSKDSTYSLSSTLTLSKADYEKHKVYACEVTHQGLSSPVTKSFNRGEC
modifications: Cys-514 of SEQ ID NO 10 undergoes post-translational conversion to formylglycine (inferred by the filing from retained enzyme activity)
notes: IgG-enzyme fusion, hetero-tetramer, CHO-derived, estimated MW 325 kDa; also called HIR Ab-SGSH fusion protein; HIR Ab-SGSH fusion antibody
[3]
  EC50: 0.33 nM
[1]
  EC50: 0.107 µg/mL
